Results as given in paper PMC9166773, “Latrophilin-2 is a novel receptor of LRG1 that rescues vascular and neurological abnormalities and restores diabetic erectile function” (Experimental & Molecular Medicine, 2022).

T1: LPHN2 Lec-Olf domains (F26-P394) (UniProt O95490 26-394)
T1 construct: LPHN2 (ADGRL2) lectin and olfactomedin-like domains, residues F26-P394; Both Fc-tagged and tag-free forms were made; source: Expi293F, purified (protein A resin; tag-free form by on-resin thrombin digestion; Superdex 200)
T1 sequence (looked up): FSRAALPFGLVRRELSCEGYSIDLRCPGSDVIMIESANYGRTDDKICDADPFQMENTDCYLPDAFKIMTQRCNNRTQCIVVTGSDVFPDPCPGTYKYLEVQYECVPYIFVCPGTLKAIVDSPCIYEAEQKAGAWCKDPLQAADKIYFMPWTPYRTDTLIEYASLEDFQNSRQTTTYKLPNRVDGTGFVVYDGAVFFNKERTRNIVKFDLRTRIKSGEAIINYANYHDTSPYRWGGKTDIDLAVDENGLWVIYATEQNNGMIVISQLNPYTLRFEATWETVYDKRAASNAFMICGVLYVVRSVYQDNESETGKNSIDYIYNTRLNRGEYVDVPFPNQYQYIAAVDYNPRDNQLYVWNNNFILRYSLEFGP

B1: Leucine-rich alpha-2-glycoprotein 1 (LRG1), recombinant tag-free human LRG1 (ligand, UniProt P02750 36-347, looked up)
chain: VTLSPKDCQVFRSDHGSSISCQPPAEIPGYLPADTVHLAVEFFNLTHLPANLLQGASKLQELHLSSNGLESLSPEFLRPVPQLRVLDLTRNALTGLPPGLFQASATLDTLVLKENQLEVLEVSWLHGLKALGHLDLSGNRLRKLPPGLLANFTLLRTLDLGENQLETLPPDLLRGPLQLERLHLEGNKLQVLGKDLLLPQPDLRYLFLNGNKLARVAAGAFQGLRQLDMLDLSNNSLASVPEGLWASLGQPNWDMRDGFDISGNPWICDQNLSDLYRWLQAQKDKMFSQNDTRCAGPEAVKGQTLLAVAKSQ
notes: human LRG1, residues V36-Q347; In the TriCEPS capture LRG1 was coupled to the TriCEPS reagent; Residues of the thrombin site may remain after cleavage; also called recombinant LRG1; soluble LRG1; not shown: Fc (human IgG), C-terminal, cleaved
B2: LPHN2 Olf domain (V135-P394) (domain or fragment, UniProt O95490 135-394, looked up)
chain: VCPGTLKAIVDSPCIYEAEQKAGAWCKDPLQAADKIYFMPWTPYRTDTLIEYASLEDFQNSRQTTTYKLPNRVDGTGFVVYDGAVFFNKERTRNIVKFDLRTRIKSGEAIINYANYHDTSPYRWGGKTDIDLAVDENGLWVIYATEQNNGMIVISQLNPYTLRFEATWETVYDKRAASNAFMICGVLYVVRSVYQDNESETGKNSIDYIYNTRLNRGEYVDVPFPNQYQYIAAVDYNPRDNQLYVWNNNFILRYSLEFGP
notes: LPHN2 (ADGRL2) olfactomedin-like domain, residues V135-P394; Both Fc-tagged and tag-free forms were made; also called olfactomedin-like domain; source: Expi293F, purified (protein A resin; tag-free form by on-resin thrombin digestion; Superdex 200)

Tests used:
[1] = biological target: T1, LPHN2 Lec-Olf domains (F26-P394); test: solid-phase binding assay; LRG1 and recombinant extracellular domains of LPHN2 (and Lec/Olf of LPHN1, LPHN3); who was immobilised and conditions not told in the text shown; conditions: both partners purified
[2] = biological target: B1; test: as above; conditions: both partners purified

Kd [1] | Kd [2] | Binder
890 nM | – | B1
– | 920 nM | B2
